The series is described as follows: yeast display, Sf9 membrane polyspecificity reagent, FACS + sequencing; frameworks hold sequencing errors. In outline:
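After 36–48 hours of galactose induction, yeast (Saccharomyces cerevisiae BJ5465) displaying a synthetic nanobody library were stained at 4 °C for 1 hour with 10% biotinylated, detergent-solubilized Sf9 membrane reagent. Streptavidin microbeads enriched the stained cells before FACS sorting into low and high (top ~1%) gates on anti-HA and streptavidin fluorescence. Each clone's polyreactivity label reflects its gate of origin.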
In the case of “QVQLVESGGGLVQAGGSLRLSCAASGRIFGKNVMGLYRKAPGKERELVAAINRSSRTYYADSVKGRFTISRDNAKNTVYLQMNSLKPEDTAVYYCAAHAFPDGDYWGQGTQVTVSS”, the “polyreactivity (PSR sort gate)” value is “high polyreactivity”.
For “QVQLVESGGGLVQAGGSLRLSCAASGSTFSIYGMGWYRQAPGKERELVAVITARDGSTYYADSVKGRFTISRDNAKNTVYLQMNSLKPEDTAVYYCAADIGPRYDSWGQGTQVTVSS”, the “polyreactivity (PSR sort gate)” value was “high polyreactivity”.
As for “QVQLVESGGGLVQAGGSLRLSCAASGRTLFHYAMGWYRQAPGKERELVAAIRNSDGSTYYADSVKGRFTISRDNAKNTVYLQMNSLKPEDTAVYYCAAVRRYHSYPDGGYWGQGTQVTVSS”, the entry is “high polyreactivity”; as for “QVHLVESGGGLVQAGGSLRLSFAASGRISRIYTMVWYRPAPGKERELVAAITSRGGSTYYADSLKGRFTISRDNAKNTVYFQMNSLNPEDTAVYYCAAGTFWWGYRSKGDEYDYWGQGTKVTVSS”, “high polyreactivity”.
The result for “QVQLVESGGGLVQAGGSLRLSCAASGSTFTDNAMGWYRQAPGKERELVAAITSGSSTNYADSVKGRFTISRDNAKNTVYLQMNSLKPEDTAVYYCATCQEPQYSTGDYWGQGTQVTVSS” reads “low polyreactivity”.
The result for “QVLLVESGGGLVQAGGSLRLSCAASGRTSFQYAMGWYSQAPGTDRELVAALSWSGGATVYADSVKGRFTISRDNAKNTDYLQMNSLKPEDTAVYYCAKRRRLDQNTCYGLDYWGQGTQGTVSS” reads “low polyreactivity”; that for “QDQIVESGGGLVQAGGSLRLTCAASGLNIYDNMGWYRQAPGKERELVAAISSSGGSTSYADSVKGRFTISRDNAKNTFYVQMNSLKPEDTAVYYCAADSYPAYLGFVGFDYWGQGTQVTVSS”, “low polyreactivity”; that for “QVQLVESGGGLVQAGGSLRLSSAASGRTFNVNAMGLYRQAPGKERELVAAIDFSDGRTYYADSVKGRFTISRDNAKNTVYLQMNSLKPADTAVYYCARSFRVGKTWYDYWGQGTQVTVSS”, “high polyreactivity”.
For “QVQLVESGGGLDQAGGSLRLSCAASGGTFARYAMGWYRQAPGKERELVAAISARGGSTYYADSVKGRFTISRDNAKNTVYLQMNSLKPEDTAVYYCAAKKWYDRYGFDYWGQGTQVTVSS”, the “polyreactivity (PSR sort gate)” value is recorded as “high polyreactivity”.
In the case of “QVQLVESGGGLVQAGGSLRLSCAASGSNFSYYAMGWYRQAPGKERELVAAITWRSGRTYYADSVKGRFTISRDNAKNTVYLQMNSLKPEDTAVYYCAAYWWRVKYHGYYYWGQGTQVTVSS”, the “polyreactivity (PSR sort gate)” value is reported as “high polyreactivity”.
Take “QVQLVESGGGLVQAGGSLRLSCAASGSTFPYYALGLYRQAPGKERELVAAISRGGGITYYADSVKGRFSISRDNAKNTVYLQMNCLKPEDTAVYYCAAYTAAEQGYNYWGQGTQVTVSS”: the “polyreactivity (PSR sort gate)” value is listed as “high polyreactivity”.
In the case of “QVQLVESGGGLLQAGGSLRLSCAASGFTFYPNAMGWYRQAPGKERELVAAISRSGSSTYYADSVKGRFTISRDNAKNTVYLQMNSLKPEDTAVYYCNRYGRQYDFYYWGQGTQVTVSS”, the “polyreactivity (PSR sort gate)” value was “high polyreactivity”.
The result for “QVQLVESGGGLVQAGGSLRLSCAASVRTLPSYAMGWYRQAPGKERELVAAISQSGGSTYYADSVKGRFTISRDNAKNTVYLQMNSLKPEDTAVYYCNAGYYYKYSPRRFDYWGQGTQVTVSS” reads “high polyreactivity”; that for “QVQLVESGGGLDQAGGSLRLSCAASGSTFKHNAMGWYRQAPAKERVLVAGISWGGSSTYYADSVKGRFTISRDNAKNTVYLQMNSLKPDDTAVYYCAKGGYRRYGYDYWGQGTQVTVSS”, “low polyreactivity”.
“QVQLVESGGGLVQAGGSLRLSCAASGSTFTRYAMGWNRQAPGKARELVAAINWSGTSTYYADSVKGRFTISRDNAMNTVYLQMNSLKPEATAVYYSNAYTVRSYRFDYWGQGTQVTVSS”: the “polyreactivity (PSR sort gate)” value is on record as “high polyreactivity”.
The result for “QVQLVESGGGLVQAGGSLRLSCAASGIIFLVNAMGWYRQAPGKESELVATITSGGSTYADSVKGRFTISRDNAKYTVYLQMNSLKPEDTAVYYCAAVRRRRNSYGYWGQGTQVTVSS” reads “high polyreactivity”; that for “QVQLVESGGGLVQAGGSLRLSCAASGSIVTSYAIGWYRQAPGQERELVATITRRGGSTYYADSVKGRFTISRDNSKNTVYLQMNSLKPEDTAVSYCTARSSTIVYAGDYWGLGTQVTVSS”, “low polyreactivity”; that for “QVQLVESGGGLVQAGGSLRLSCAASGRIFTSNAMGWYRQAPGKEREFVAAITKRGGRTYYADSVKGRFTISRDNAKNTVYLQMNSLKPEDTAVYYCAAGATGTSYYGGDYWGQGTQVTVSS”, “high polyreactivity”.
As for “PVQLVESGGGLVQAGGSLRLSCAASGITFYRYMGWYRQAPGKERELVASITGRGGSTYYADSVKGRFTISRDNAKNTVYLQMNSLKPEDTAVYYCAAVFPTKSSTWYDFWGEGTQVTVSS”, the entry is “high polyreactivity”; as for “QVQLVESGGGLVQAGGSLRLSCAASGSIFYKYTMGWYRPAPGKERELVAAISRSGGRTYYADSVKGRFTISRDNAKNTVYLQMNSLKPEDTAVYYCARDLKIVEYDYWGQGTQVTVSS”, “low polyreactivity”.
As for “QVQLVESGGGLVQAGGSLRLSCAASGSTSVDYTMGWSRQAPGKERELVAAIDYNGDSTYYADSVKGRFTISRDNAKITVYLQMNRLKPEDTAVYYCADDVWTLDPDEYDYWGQGTQVTVSS”, the “polyreactivity (PSR sort gate)” value is on record as “low polyreactivity”.
For “QVQLVESGGGLVQAGGSLRLSCAASGSILVSYAMGWYRPAPGKERELVAAITSGGRTKYADSVKGRFTISRDNAKNTVYLQMNSLKPEDTAVYYCAADDPLSYQFDYWGQGTQVTVSS”, the “polyreactivity (PSR sort gate)” value is on record as “high polyreactivity”.
Turning to “QVQLVESGGGLVQAGGSLRLSCAASGYIFWENAMGWYRQAPGKERELVAAITVSGGGTYYADSVKGRFTISRDNAKNTVYLQMNSLEPEDTAVYSCAADEDNPWLWFYYCGQGTQVTVSS”, the “polyreactivity (PSR sort gate)” value is on record as “low polyreactivity”.
The result for “QVQHVESGGGLVQAGGSLRLSCAASGSIIPSNVMGWYRQTPGKDRELVAAISNTGSTNYADSVKGRFTISRDNAKNSVYLQMNSLKPEDTAVYYCNADASYGFWSLLDYDYWGQGTQVTVSS” reads “low polyreactivity”; that for “QVQLVESGGGLVQAAGSLRLSFAASGSIFGRYPMGWYRQAPGKERELVAAISTGDSTYYADSVKGRFTISRDNAKNTVYLQMISLKPEDTAVYYCNRRGRRGYDYWGQGTQVTVSS”, “high polyreactivity”; that for “QVQLVESGGGLVQAGGSLRLICAASGFTFYKYTMGWYRQAPGKERELVAAISARGGSTYYADSVKGRFTISRDNAKNTVYLQMNSLKPEDTAVYYCAADYWRTYGLGYDYWGQGTQVTVSS”, “high polyreactivity”.
The result for “QVQLVASGGGLVHAGASLRLSCAASGRIFTGNVMGWYRQAHWKERELVAAISVSGGRTYYADSVKGRFTISRDYAKNTVYLQMNSLKPVDSAVYYCNARYSRVWYGGDYWGQGTQVTVSS” reads “high polyreactivity”; that for “QEQLQESAGGLVQACGSQRLSCAASGSISEGQDMGSYRRAPGKEREFVAGIAPGATTYYADSVKGRFTISRDNAKKTVYRQMNSLKAEDTAVYYCAARSVTETDHDYWGQGTQVTVSS”, “low polyreactivity”.
The result for “QVQLVESGGGLVQAGGSLRLSCAASGSIFPYYAMGWYRQAPGKERDLVAAISWSGTSTYYADSLKGRFTISRDNAKNTVYLQMNSLNPEDTAVYYCAASGVGTNHYGYWNESDYWGQGTQVTVSS” reads “low polyreactivity”; that for “QVQLVESGGGLVQAGGSLRLSCAASGIIFARYAMGWYRQAPGKERELVASINWTGGNTYADSVKGRFTISRDNAKNTVYLQMNSLKPEDTAVYYCARDFSPGSSDPKASISFDHWGQGTQVTVSS”, “low polyreactivity”.

(Values after the nanobody polyreactivity screen of Harvey et al. (2022).)
